Where two headings read alike, the source gives them in different places. Non-standard residues stand in square brackets, D forms with d. No end group written: not given here.
Key:
CRH1 receptor [1] = target: T1, CRH1 receptor (mouse, UniProt P35347)
CRH1 receptor [2] = target: T1, CRH1 receptor; assay: cell-based or functional assay

Row | Molecule | EC50, inhibition of proliferation of Cloudman melanoma cells (cell count) (CRH1 receptor [1]) [picomolar] | EC50, inhibition of proliferation of Cloudman melanoma cells (cell count) (CRH1 receptor [2]) [picomolar]
1 | acetyl-cyclo(30-33)[D-Phe^12, Nle^18, D-Glu^20, Nle^21, Glu^30, D-Ala^32]-urotensin I(4-41) (peptide) | 0.36 | 
2 | DNPSLSIDLTFHLLRTLLELARTQSQRERAEQNRIIFDSV-NH2 (ligand) [Urocortin (human)] |  | 9.5
3 | SEEP[dP]ISLDLTFHLLREVLEMARAEQLAQQAHSNRKLMEII-NH2 [[D-Pro^5]-CRH] |  | 82
4 | SEEPPISLDLTFHLLREVL[dE]MARAEQLAQQAHSNRKLMEII-NH2 [[D-Glu^20]-CRH] |  | 16
5 | SEEPPISLDLTFHLLREVLEMARAEQLAQQAHSNRKLMEII-NH2 (ligand) [Corticotropin-releasing hormone (CRH), human/rat] |  | 8.6

Reference: patent US20030186853A1, “Novel corticotropin-releasing hormone analogs” (The Regents of the University of California, Office of …, published 2003)
